Assay: soluble on expression in E. coli; label from the status in PepcDB or PDB records

Sequence	soluble on expression in E. coli
QHGSSTDPSFVALRNNSSLSCDGKSRLLEFGNDLGFSKEETDVLAKQKNWEQNYTNFKKQFEHKLLDPKSFSLTDVYNLFSGFQQSVADTVKLMNELQTQVNKANDIYPVESFQVPKVPQKLFGFVDQGFFPKLNPKGLNIADNVASLFEKYSLKQATLKDFDIVLEKKNDIVLEHKVRYNFALQ	not soluble
MSVIDANALDTAAFVARYRALFEHSPWVVERAARRRPFDDVFGGLMQVVYDASPDDQLALIRAHPELAGKAAIDRTLTAASAAEQASAGLDRLDEDEFHRFHALNHAYRQRFGFPFVICVRLQDKAGILAELQRRLDAPRNDEIATALAEIGKIVHLRLEALPLEHHHHHH	soluble
MSNRVPTNILTGFLGVGKTTTILNLLKNKPENENWAVLVNEFGEIGIDGALMTDQGALIKEVPGGCMCCTAGVPMSVGITALLRQKPDRLLIEPTGLGHPKQVIATLTSEQYLPYVDLKATIALVDPRNLSDEKYTSNQNFVDQLDSADVVIGSKVDLCSSHDIDVFNDWVTDQTPAKVFSKLIHNGELPIEVLDIERVHGSASSHIETHHHEHAHQEPQFQLPPGEAFIRKENKGQGYFSCGWLFGAEYKFDFDKLFSMLSDLTAERVKAVVNTNQGCYAFNVANRVVSVNEISLEGFESRLEVIDSQLLPWDELEQILLQLAGVEGLEHHHHHH	soluble
MSEPVKLRAHTQAHCKDCSLAPLCLPLSLNTDDMDSLDQIVKRGRPLKKGEFLFRQGDTFESVYAVRSGALKTFNISDNGEEQLTGFHLPSELVGLSGMDAEAYPVSAQALETTSVCEIPFERLDELSVQLPQLRRQLMRVMSREIRDDQQMMLLLSKKTADERIATFLINLSARFRARGFSANQFRLSMSRSEIGNHLGLAVETVSRVFTRFQQNQLVSAEGKEIHILAPIELCALAGGAMQS	soluble
MGQGANILGFGGDRSFNLAGNRAGFALGSNNGALVGGQRVGVDGGIGGGREGVEMGSQVQFGNEPNPGHPAGQFGSFMDNVKNFFSFLGRGMPMPPQQPPPSPPFSLGVTRPPTLIGTERSESENGGRHRPRPWFPEGEQIPEVTGEMRPKEGEAGISSSSSSSSETEFIGPNNGEIPRKSVEFSIDKEPREEFTEDLFTAQTSRPRELPGLIEFA	not soluble
MAPGTKKKSDMAKFTFYKDRLMTFKNFEYDRDPDAKCTSQAVAQAGFYCTGPQSGKCAFCNKELDFDPEDDPWYEHTKRDEPCEFVRIGKLDDSELTINDTVRLSQTAMIMTKLFEHEMMINNLSNHSSSDALFDQLKKVPNTASTTKSNSRRGK	not soluble
MSLSRHSNTPATDASVLLVQLSDSHLFAEDGARLLGMDTAHSLEKVVERVAREQPRIDLILATGDVSQDGSLDSYTRFRRLSAPLDAPLRWFAGNHDEREPMQRATEGSDLLEQVVDVGNWRVVLLDSSIPGAVPGYLEEDQLELLRRAIDSAGERFLLVSFHHHPVPIGSDWMDPIGLRNPQALFDLLAPYPQVRCLLWGHIHQEFDRQRGPLRLLASPSTCVQFAPGSSDFTLDRLAPGYRWLRLHDDGRLETGISRVDDVVFEVDYDTAGYEGGSHHHHHH	soluble
MAHHHHHHMQQSLKNQEHIWAVLQKMRMEMNECFAEHERMLRQAHGQLKERLDKIESAFVARNGGVGQLVGNSSSSLGHLDHATPVYTRFVSDKKGSPAGMRVTMLSTPPNERMQLMPPDSRGARSDVLPQPVDPTDWVALAAPSRQEATPAVSPHNRWTNDDSIHAEKTPSVDATCFEALNNLMNDDDFQHSTLESVIPSYTQDDDSKQLQSQPNLGTYTKKNDIIHMGAPGSSQTQHFTKSLKVTYMDGRPQAVPIPDGPPDEPDKLGIDVNAQCKVLVEFKRKRVLQFESKEYVPPGSYVMVGGDRGEDLGLVTYTWCETTKSLKGELGEFGNGSNKTVVLCVGLTGSTLTRSIGLGAGTVLRLADDSDVKQLHTVQVELERRAIDVCSQRVLERGLPMTIVDAEYQFDKKKLTFFYEAQQRMDFRELVRDLYKSFRARIWMELVEN	not soluble
MSLGSRKKFGATYMTTNNRFYEIINDEIRSVVESNGDILVTRDAALDKNKQMQQIYEFIKLKVKAIFINPVDWKQIKPALIAAKNAGIPVIVVDTPVYDDKLVACTVISDNYDAGVQCAKYLMKSKSKANIMLIEHSKAKSGIDRIKGFVDTIGASKQYKIVAAGDSEGQLDKTMSLVDDLIKKHTNVDAIMALNDPSALGALAALKENGLLGKVMVFGVDGSPEAKTMIHDGFMTATSAQFPNKIGHIAAEKAYDILKGKRLKRDVIVPISLISKENLLKYEISGWKEGHHHHHH	soluble
MCLGIPARVVEVLDGPLPMAVVDMAGEQRPCSVMYVPEVQVGQFVLLQNGYAMEVLDEKSAQESLATIAEFNLVQQVQLAPREPR	not soluble
MKLEVTPKAQQWFKEETGVQPETGIRFFGKIYGKTPVHDGFSIAMSVEAPDEPMIKENLDGITYFIEETDDWFFKGYDLIVDYDEKNDEPRYQFEANQEDLTK	not soluble
MGSDKIHHHHHHMYKTYREEERKSVDRGIFKEVPLPCAFLDEVALDRNIQLIIELSGNKKIRIASKSLRSVPVMQKILAANDRFQGIMCFSPREVLFLIEQGFNDLLLGYPAYDDRALHEISLLTKQGLIITCMVDCEDHIVYLEKIAEKSKGCFRVCLDIDMSSRFLNFHFGVKRSPVRDVQGALKIVKRLKESSFLILDGVMGYEAQIAGVGDHIPNQRVKSKVISYLKKKSVLEVKARRGHIVKEIQNLGIELRFVNGGGTGSIKTTEQDHSVSEITIGSAFYAPKLFDYYKEVQLQPAVGFALPVVRKPAPTIYTCLGGGYIASGAIGKDKEPEIWRPNGAKLLALEGAGEVQTPIFYNGEERVEIGDSILFRHSKAGELCERFPFLYRVKEGEIVGEYSTYRGDGQCFL	not soluble
MSLRAYIPIDKYSLPEKFEIPLGNTNYIFEVDYNQTEKFFTVDLYDIDHTPIAIGERMVIDERLWQDIVDTRLPSADLVPMDESGASKEITFENFGIQVFLYIDDLPPNYNVPSLEREDN	not soluble
MGSDKIHHHHHHMRYSICYTPSARDPLSLAAASWLGRNVYSDEPVEHPGLAGLGLHEIAFHTALPRRNGFHGCLKAPFALHPEVSEAQLLRELMHFAGIVEPFALPGLEVAKLGDFCGLTLTHPSNQLDRVAALVVQNFDRFRAPLSDAEIERMAPERLSAPQFANLYRWGDPHVLDEYRFYMPLTGPLPLSHRDRLHQAATHYFAPLLQNPVVFANLALFIEREPGAPLVVHSLHPMGRVSARKIA	not soluble
MQTVGSFSEFLDDMVGRYGPRPAIQYRPRYRTLRWSYLELGTHAAKLASLLDEHGVGSGDRVFLSAENSPHWVAAFFAIAARGAVIVPLNPRSPPEQLANLVRSAGPSLVLASPRRRWEGPPLPVVDIERSGRVPSNRPATRTGPARLAEIIYTSGTTGDPKGVMLTHANLLSDLSAVARAIPLAPDDHVLSLVPLFHVYGQMTSLFCPLAAGCPVSYLTTPTTRSVLEALTHTPVTHLVAVPEVLKTMMDRLESRIGRIPGFLWPLLRGRIRARISGSLRTIVCGGAPLDPVVEEKWWALGFQVLQGYGLTETSPVIAANTPQAHRIGSVGKPLDEVELRIASDGEILVKGPMVMAGYFRDPARTEAAFADGWLKTGDAGRLDADGFLYVYGRKRYMILGPGGENVFPEDIEAVLNRTAGVTDCAVVGLESGGRTLVHAVLLADADEARAAAIVAEANRHLAPHQRIVSWSLWPEPDFPRSVTRKVKKDEVLGRLRREPSTQAVPVGRSTPLRLLLAQVAGTEAGALSDDTRLVPDLGLDSLLRIELVARIEEDLGVCLDEIDIGPLTTVADLENLLVRRQDRMPRVDAHPRWSLSPWASRLRPLAQKVFLQWWIAPFCRLRVSGLEHLAALDGPVIFMANHRSYLDSAVASFALPDRFRYRLAIAAATGVLYTRYRWAVPIGELSLNAFPLPSGPDENIRPGLELIGRLLDDGWNVLIFPEGQMNRGGLGIQPLRRGAGTIGVDMGVPVVPLVIEGTEKVMPPGRIVPRAAAPVSVRFGAPLRAGEAEPHGRMLARIEDALRRLLENSPLEHHHHHH	not soluble
DQVGIWGNSPTAHRGLAVAARHAAPLLRVEDAFLRSLFPGRAGEPPLGLLLDRAGVHFDPTTPSDLEQLLTSAPLDDTTLLNRARDAMARIRENHLSKYCATDPDLPLPEPGYVLVIDQTRGDASVTASGGNDALFREMLVFAQEEHPGARVLIKTHPETAAGFRPGYYGERDISVRVSLYDAPLSPWALLDGAVGVYTLSSQLGFEAILAGHKPRVFGQPFYAGWGLTLDEHPVPRRERRLTRAQLFAAAMILYPTW	not soluble
MSLRLADFGFTDGINEIIAITENEDGSWNAAPIGIIVEDSSSDTAKAKLYRNRTRANLERSGVLFANVTDDALVFAVSSFGNLNDDWYASPNPPIIKGAMAWCRFEAEMRSGVAHLKLTDGEIIEKRVRAINRGLSAVIEALVHATRYVAIKSDERRKELLERIHYYREIVQKCGSEREKRAFEIIMEKIGEGHHHHHH	soluble
SGAISGDSLISLASTGKRVSIKDLLDEKDFEIWAINEQTMKLESAKVSRVFMTGKKLVYILKTRLGRTIKATANHRFLTIDGWKRLDELSLKEHIALPRKLESSSLQLSPEIEKLSQSDISWDSIVSITETGVEEVFDLTVPGPHNFVANDIIVHASI	soluble
MSLIGETINKLKVIKESSKRDKSRCKMYECLCECGEVIIVRSSTLRQGKIKSCGCESNKIHSELMRERNTTHGLSSNPMYQRWLGMKQRCYDVNAINYKNYGGRGIEICEEWKNDFKKFYDYMGDPPNENYQIDRINNDGNYEPGNVKWSTRSENSTNIRKKSTHNIYKKSNNVYNIQIVRKNKVKYFSAKSLEEAIELRDNVINKYNETGEGHHHHHH	not soluble
MRCILLGSGTSTGVPEVGCHCRVCRSEDRHDKRTRTSLLIITDAGKRILIDCSPDFRQQALFAGIDSLDAVLLTHEHFDHVGGLDDLRTICWHRELAVYAEQNVLDSIRDRLHYVFRKNPYPGTPLLKLCEVKPDMPFQVADLTVEPLRIMHGRLPILGYKIGEMAFLTDMKDIAAEEIECLKSCRLLFINGLRYRKEHPSHQTIEQAIDTIGQIGNPESVLIHLSHHAPLHQEHLEILPPHIHSGYDGLEAIIDEKGIRIKDFEPHVSRSEYHYQDCGRIGYESALTLQRKLFHDAVADKLENRKPQNTLLFCEHEPVLTLGKHGHEENLLLSESELKSRDIRLFHIERGGDITYHGPGQITGYPIFDLEQYGIGLRSYIEMLEQCIIDLIAIFGLKGERSAGASGVWLDPDIPGRTRKICAIGVKSSRHITMHGFALNVNTDLDYFKLINPCGFSDRGVTSISRELGREQDFILVKQQLEAVFRRNFGAL	not soluble
MSTTKAFKMTYTNAGNKKTEQVIQATEPLTILLMGVDTGGEGRGTSDSWNGNSDSQILMTLNPKTHTTTMVSIERDTMTNILDADGNIVSKQKMNAAYPLGYNSGSSSDGLKNAVSYAMKTISAQTGINIDSFVTVNFDGLVNMVDNVGGIDINNTTGQTLYISDTEPQYTAKVPPGKQHINGDQALVYTRDRHHLSNGDYGRAAHQREVIAALMKKILALDNITRYEQFLNEASKDFRTNIPINASTITSLLGYKDCFNKVVSIQYEGVGEMVDGASYQFMPTDIYLAMQNIMKKSLDESTVTTLPSSLITYESVFGSGTAPFYYLPSATVTEKGKSTVTYGVDTQGNLVSLNSKNSGNYVSTSGGSVQSDSSSGSSSSSSDSTATSSSDSTYQQDNTYNDGYNNSNDSTTSSYGTDDTNTGNYGYGTSQLEHHHHHH	soluble

— the DeepSol protein solubility set
